Substrate in series [1]: O=C(O)C[C@H](C(=O)O)[C@@H](O)C(=O)O
The series can be described thus: NADH production, Hill fit. It is filed as biochemical, Homo sapiens. As to conditions: no activators, 3.2 mM NAD, 2 mM MgCl2, 33 mM Tris-acetate pH 7.4. The source says:
NADH production, Hill fit on αβ heterodimer of HsIDH3 (mutant form αMβ)

Substrate in series [2]: O=C(O)C[C@H](C(=O)O)[C@@H](O)C(=O)O
The series can be described thus: NADH production, Hill fit. In kind it is biochemical, Homo sapiens. The settings on record: no activators, 3.2 mM NAD, 2 mM MgCl2, 33 mM Tris-acetate pH 7.4. The text has this:
NADH production, Hill fit on αγ heterodimer of HsIDH3 (mutant form αMγ)
This is another data set of the same source.

B1: αβ heterodimer of HsIDH3 (mutant form αMβ) (Homo sapiens; P50213:Q166A) (protein)
chain 1: TGGVQTVTLIPGDGIGPEISAAVMKIFDAAKAPIQWEERNVTAIQGPGGKWMIPSEAKESMDKNKMGLKGPLKTPIAAGHPSMNLLLRKTFDLYANVRPCVSIEGYKTPYTDVNIVTIRENTEGEYSGIEHVIVDGVVASIKLITEGASKRIAEFAFEYARNNHRSNVTAVHKANIMRMSDGLFLQKCREVAESCKDIKFNEMYLDTVCLNMVQDPSQFDVLVMPNLYGDILSDLCAGLIGGLGVTPSGNIGANGVAIFESVHGTAPDIAGKDMANPTALLLSAVMMLRHMGLFDHAARIEAACFATIKDGKSLTKDLGGNAKCSDFTEEICRRVKDLD
chain 2: not shown
notes: coexpressed alpha and beta-TEV-His6 (pQlinkN), E. coli BL21(DE3) Codon-Plus, His6 tag cleaved with TEV; 1:1 heterodimer, mutant is heterotetramer (αMβ)2 of 131-149 kDa
On to B1, for which, in series [1], the K0.5 is given as 0.17 ± 0.02 mM and the Vmax turned out to be 18 µmol/min/mg.

B2: αγ heterodimer of HsIDH3 (mutant form αMγ) (Homo sapiens; P50213:Q166A) (protein)
chain 1: TGGVQTVTLIPGDGIGPEISAAVMKIFDAAKAPIQWEERNVTAIQGPGGKWMIPSEAKESMDKNKMGLKGPLKTPIAAGHPSMNLLLRKTFDLYANVRPCVSIEGYKTPYTDVNIVTIRENTEGEYSGIEHVIVDGVVASIKLITEGASKRIAEFAFEYARNNHRSNVTAVHKANIMRMSDGLFLQKCREVAESCKDIKFNEMYLDTVCLNMVQDPSQFDVLVMPNLYGDILSDLCAGLIGGLGVTPSGNIGANGVAIFESVHGTAPDIAGKDMANPTALLLSAVMMLRHMGLFDHAARIEAACFATIKDGKSLTKDLGGNAKCSDFTEEICRRVKDLD
chain 2: FSEQTIPPSAKYGGRHTVTMIPGDGIGPELMLHVKSVFRHACVPVDFEEVHVSSNADEEDIRNAIMAIRRNRVALKGNIETNHNLPPSHKSRNNILRTSLDLYANVIHCKSLPGVVTRHKDIDILIVRENTEGEYSSLEHESVAGVVESLKIITKAKSLRIAEYAFKLAQESGRKKVTAVHKANIMKLGDGLFLQCCREVAARYPQITFENMIVDNTTMQLVSRPQQFDVMVMPNLYGNIVNNVCAGLVGGPGLVAGANYGHVYAVFETATRNTGKSIANKNIANPTATLLASCMMLDHLKLHSYATSIRKAVLASMDNENMHTPDIGGQGTTSEAIQDVIRHIRVINGRAVEA
notes: coexpressed alpha and gamma-TEV-His6 (pQlinkN), E. coli BL21(DE3) Codon-Plus, His6 tag cleaved with TEV; 1:1 heterodimer, mutant is heterotetramer (αMγ)2 of 131-149 kDa
Turning to B2, in series [2], the K0.5 was determined as 0.26 ± 0.11 mM and the Vmax was 25.5 µmol/min/mg.

Source of the values: PMC9731866, “Structures of a constitutively active mutant of human IDH3 reveal new insights into the mechanisms of allosteric activation and the catalytic reaction” (The Journal of Biological Chemistry, 2022).
